Reference: patent publication US7183387 (Genentech, dated 2007)

T1: human FcγRIIB α subunit extracellular domain-6His-GST fusion (human, UniProt P31994 43-217)
T1 construct: not shown: glutathione S-transferase (GST)
T1 sequence: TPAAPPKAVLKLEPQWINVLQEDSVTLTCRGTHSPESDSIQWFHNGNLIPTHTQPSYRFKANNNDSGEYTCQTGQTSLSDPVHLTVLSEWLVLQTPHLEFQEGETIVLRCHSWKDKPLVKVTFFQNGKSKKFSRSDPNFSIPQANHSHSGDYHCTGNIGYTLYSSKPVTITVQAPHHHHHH

T2: human FcγRIIA-R131 α subunit extracellular domain-6His-GST fusion (human, UniProt P12318 34-217)
T2 construct: also called FcγRIIA-Arg131; not shown: glutathione S-transferase (GST)
T2 sequence: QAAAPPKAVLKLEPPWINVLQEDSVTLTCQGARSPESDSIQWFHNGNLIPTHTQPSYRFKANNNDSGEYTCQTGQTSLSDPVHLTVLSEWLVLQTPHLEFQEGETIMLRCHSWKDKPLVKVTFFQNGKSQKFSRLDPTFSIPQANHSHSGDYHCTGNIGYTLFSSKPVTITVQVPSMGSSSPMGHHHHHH

B1: E27 IgG1 variant K334(353)E (antibody)
heavy: not shown
light: DIQLTQSPSSLSASVGDRVTITCRASKPVDGEGDSYLNWYQQKPGKAPKLLIYAASYLESGVPSRFSGSGSGTDFTLTISSLQPEDFATYYCQQSHEDPYTFGQGTKVEIKRTVAAPSVFIFPPSDEQLKSGTASVVCLLNNFYPREAKVQWKVDNALQSGNSQESVTEQDSKDSTYSLSSTLTLSKADYEKHKVYACEVTHQGLSSPVTKSFNRGEC
B2: E27 IgG1 variant P331(350)N (antibody)
heavy: not shown
light: B1 light
notes: also called IG2 199
B3: E27 IgG1 variant N286(303)D (antibody)
heavy: not shown
light: B1 light
notes: also called IG2 238
B4: E27 IgG1 variant K334(353)R (antibody)
heavy: not shown
light: B1 light
B5: E27 IgG1 variant N276(289)K (antibody)
heavy: not shown
light: B1 light
B6: E27 IgG1 variant N276(289)Q (antibody)
heavy: not shown
light: B1 light
notes: also called IG2 233
B7: E27 IgG1 variant K338(358)M (antibody)
heavy: not shown
light: B1 light
B8: E27 IgG1 variant K334(353)Q (antibody)
heavy: not shown
light: B1 light
B9: E27 IgG1 variant K334(353)L (antibody)
heavy: not shown
light: B1 light
notes: also called IG2 221
B10: E27 IgG1 variant K334(353)V (antibody)
heavy: not shown
light: B1 light
notes: also called IG2 220
B11: E27 IgG1 variant K334(353)S (antibody)
heavy: not shown
light: B1 light
B12: E27 IgG1 variant K334(353)N (antibody)
heavy: not shown
light: B1 light
B13: E27 IgG1 variant P331(350)E (antibody)
heavy: not shown
light: B1 light
notes: also called IG2 200
B14: E27 IgG1 variant N286(303)S (antibody)
heavy: not shown
light: B1 light
notes: also called IG2 237
B15: E27 IgG1 variant N286(303)Q (antibody)
heavy: not shown
light: B1 light
notes: also called IG2 23
B16: E27 IgG1 variant P331(350)K (antibody)
heavy: not shown
light: B1 light

Biological target: T3, human FcγRIIIA-F158 α subunit extracellular domain-6His-GST fusion (human, UniProt P08637 17-208)
T3 construct: also called FcγRIIIA-Phe158; not shown: glutathione S-transferase (GST)
Experiment: ELISA, IgG:IgE hexamers on receptor-GST

T3 sequence (P08637 other isoform, or with tags, fused parts or gaps, form in doubt): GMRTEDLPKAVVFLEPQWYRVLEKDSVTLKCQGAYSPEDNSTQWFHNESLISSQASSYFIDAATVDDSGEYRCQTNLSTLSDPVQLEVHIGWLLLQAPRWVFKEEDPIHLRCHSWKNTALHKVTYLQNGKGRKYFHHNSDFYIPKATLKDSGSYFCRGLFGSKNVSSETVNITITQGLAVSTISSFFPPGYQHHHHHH

Row | Binder | ratio to native IgG1
1 | B1 | 1.3
2 | B2 | 0.23
3 | B3 | 0.98
4 | B4 | 0.68
5 | B5 | 0.61
6 | B6 | 0.91
7 | B7 | 0.49
8 | B8 | 1.23
9 | B9 | 1.38
10 | B10 | 1.34
11 | B11 | 1.19
12 | B12 | 1.11
13 | B13 | 0.42
14 | B14 | 1.32
15 | B15 | 0.96
16 | B16 | 0.33

Biological target: T1, human FcγRIIB α subunit extracellular …
Experiment: ELISA, IgG:IgE hexamers on receptor-GST

Row | Binder | ratio to native IgG1
17 | B1 | 0.72
18 | B2 | 0.65
19 | B3 | 1.23
20 | B4 | 1.33
21 | B5 | 0.77
22 | B6 | 0.79
23 | B7 | 0.93
24 | B8 | 1.1
25 | B9 | 1.09
26 | B10 | 1.09
27 | B11 | 1.03
28 | B12 | 1.29
29 | B13 | 0.91
30 | B14 | 1.38
31 | B15 | 1.13
32 | B16 | 0.71

Biological target: T2, human FcγRIIA-R131 α subunit …
Experiment: ELISA, IgG:IgE hexamers on receptor-GST

Row | Binder | ratio to native IgG1
33 | B1 | 0.74
34 | B2 | 0.86
35 | B3 | 1.41
36 | B4 | 1.15
37 | B5 | 0.81
38 | B6 | 1.09
39 | B7 | 0.99
40 | B8 | 1.08
41 | B9 | 1.05
42 | B10 | 1.13
43 | B11 | 1.01
44 | B12 | 1.16
45 | B13 | 1.06
46 | B14 | 1.72
47 | B15 | 1.52
48 | B16 | 0.94
